Measured values published in patent US20120027722A1 (MEDICAL RESEARCH COUNCIL, published 2012).
Changes are numbered by the printed parent chain. Names and notes keep the numbering of the source. Where two headings read alike, the source gives them in different places. No end group written: not given here.

Legend:
[1] = target: T1, Peptide D3; assay: peptide ELISA: biotinylated peptide on streptavidin plate, COS7 supernatant, anti-human kappa HRP, OD 655 nm
T1 construct: member of the group m28

[2] = target: T2, E2 peptide B1 (Hepatitis C virus, genotype 2b (Table 5)); assay: as above
[3] = target: T3, AP33 mimotope peptide H6; assay: as above
T3 construct: captured on streptavidin plates; also called mimotope H6; H6 peptide
T3 peptide: VELRNLGGTWRPGSGK-biotin

[4] = target: T4, E2 peptide C2 (Hepatitis C virus, genotype 1a (Table 5), not fully specified (residue 16, C-terminus)); assay: as above
T4 peptide: QLINTNGSWHVNGSGK

[5] = target: T3, AP33 mimotope peptide H6; assay: as above
[6] = target: T3, AP33 mimotope peptide H6; assay: as above
[7] = target: HCV E1E2 glycoproteins, isolate 2A2.4 (on HCVpp) (Hepatitis C virus genotype 2 (2A2.4)); assay: cell-based or functional assay
[8] = target: HCV E1E2 glycoproteins, genotype 3a isolate F4/2-35 (on HCVpp) (Hepatitis C virus genotype 3a (F4/2-35)); assay: cell-based or functional assay
[9] = target: HCV E1E2 glycoproteins, isolate 4.21.16 (on HCVpp) (Hepatitis C virus genotype 4 (4.21.16)); assay: cell-based or functional assay
[10] = target: HCV E1E2 glycoproteins, genotype 2a isolate JFH1 (on HCVpp) (Hepatitis C virus genotype 2a (JFH1), UniProt Q99IB8 192-383; Q99IB8 384-750); assay: cell-based or functional assay
[11] = target: HCV E1E2 glycoproteins, isolate 6.5.8 (on HCVpp) (Hepatitis C virus genotype 6 (6.5.8)); assay: cell-based or functional assay
[12] = target: T1, Peptide D3; assay: peptide ELISA: biotinylated peptide on streptavidin plate, COS7 supernatant, anti-human kappa HRP, OD 655 nm; remark: listed apart in the source
[13] = target: T2, E2 peptide B1; assay: as above; remark: listed apart in the source
[14] = target: T3, AP33 mimotope peptide H6; assay: as above
[15] = target: T1, Peptide D3; assay: as above; remark: listed apart in the source
[16] = target: T2, E2 peptide B1; assay: as above; remark: listed apart in the source
[17] = target: T3, AP33 mimotope peptide H6; assay: as above
[18] = target: T3, AP33 mimotope peptide H6; assay: as above
[19] = target: T4, E2 peptide C2; assay: peptide ELISA: biotinylated peptide on streptavidin plate, COS7 supernatant, normalised as percentage of H6 binding
[20] = target: HCV E1E2 glycoproteins, isolate 1B5.23 (on HCVpp) (Hepatitis C virus genotype 1 (1B5.23)); assay: cell-based or functional assay
[21] = target: HCV E1E2 glycoproteins, isolate 2B1.1 (on HCVpp) (Hepatitis C virus genotype 2 (2B1.1)); assay: cell-based or functional assay
[22] = target: HCV E1E2 glycoproteins, isolate 5.15.11 (on HCVpp) (Hepatitis C virus genotype 5 (5.15.11)); assay: cell-based or functional assay
[23] = target: HCV E1E2 glycoproteins, isolate 1A20.8 (on HCVpp) (Hepatitis C virus genotype 1 (1A20.8)); assay: cell-based or functional assay
[24] = target: T2, E2 peptide B1; assay: peptide ELISA, COS7 supernatants, normalized to H6 binding
[25] = target: T1, Peptide D3

B1: AP33 RH-D/RK2bc (antibody, V domains shown)
VH: QVQLQESGPGLVKPSETLSLTCTVSGDSITSGYWNWIRQPPGRALEYIGYISYSGSTYYNLSLRSRITISRDTSKNQYSLRLSSVTAADTAMYYCALITTTTYAMDYWGQGTTVTVS
VL: EIVLTQSPSSLSASVGDRVTITCRASESVDGYGNSFLHWFQQKPGKAPKLLIYLASNLNSGVPSRFSGSGSRTDFTLTISSLQPEDFATYYCQQNNVDPWTFGQGTKLEIK
notes: COS7 supernatant
Question: B1 was tested. Which “EC50 (read off the curve)” value [1] did it give?
Answer: Its value is ~0.04 µg/mL.

Question: Does B1 bind [2]?
Answer: Result: no binding (tested: about 950 ng/ml)

Question: And the “EC50 (read off the curve)” value [3]?
Answer: The value was ~0.04 µg/mL.

Question: Does B1 bind [4]?
Answer: Result: binds

B2: Vh/RK2bc (antibody, V domains shown)
VH: EVQLQESGPSLVKPSQTLSLTCSVTGDSITSGYWNWIRKFPGNKLEYMGYISYSGSTYYNLSLRSRISITRDTSKNQYYLQLNSVTTEDTATYYCALITTTTYAMDYWGQGTSVTVS
VL: B1 VL
notes: COS7 supernatant; also called chimeric AP33 heavy chain Vh with humanized light chain RK2bc
Question: Does B2 bind [5]?
Answer: Result: binds

B3: humanized AP33 antibody RHb-h/RK2b (antibody, V domains shown)
VH: B1 VH with I48M
VL: B1 VL with R72G
Question: For B3, which “EC50 (read off the curve)” value [6] is on record?
Answer: Its value is ~0.04 µg/mL.

Question: What about the “IC50 of HCVpp infection (Huh-7, luciferase)” value (“IC50 of HCVpp infection” below) [7] of the same binder?
Answer: The value was 1.7 µg/mL.

Question: What about the “IC90 of HCVpp infection (Huh-7, luciferase)” value (“IC90 of HCVpp infection” for short) [7] of the same binder?
Answer: The value was 20 µg/mL.

Question: What about the “IC50 of HCVpp infection” value [8] of the same binder?
Answer: The value was 1.15 µg/mL.

Question: And the “IC90 of HCVpp infection” value [8]?
Answer: Its value is 8.3 µg/mL.

Question: And the “IC50 of HCVpp infection” value [9]?
Answer: Its value is 0.33 µg/mL.

Question: And the “IC90 of HCVpp infection” value [9]?
Answer: Its value is 3.64 µg/mL.

Question: What about the “IC50 of HCVpp infection” value [10] of the same binder?
Answer: Its value is 2.7 µg/mL.

Question: What about the “IC90 of HCVpp infection” value [10] of the same binder?
Answer: The value was 22.1 µg/mL.

Question: And the “IC50 of HCVpp infection” value [11]?
Answer: The value was < 0.41 µg/mL.

Question: What about the “IC90 of HCVpp infection” value [11] of the same binder?
Answer: The value was 3.7 µg/mL.

B4: RHA/Vl (humanized heavy chain RHA with chimeric light chain) (antibody, V domains shown)
VH: B1 VH with T30S, Y47W, I67V, R71V, Y78F, L97R
VL: NIVLTQSPVSLAVSLGQRATISCRASESVDGYGNSFLHWFQQKPGQPPKLLIYLASNLNSGVPARFSGSGSRTDFTLTIDPVEADDAATYYCQQNNVDPWTFGGGTKLEIK
notes: Human IgG1/kappa from vectors pG1D200 and pKN100, COS7 expression
Question: Does B4 bind [5]?
Answer: Result: binds

B5: AP33 RH-E/RK2bc (antibody, V domains shown)
VH: B1 VH with I48M, I67V
VL: B1 VL
notes: COS7 supernatant
Question: Does B5 bind [12]?
Answer: Result: binds

Question: Does B5 bind [13]?
Answer: Result: no binding (tested: about 800 ng/ml)

Question: Does B5 bind [14]?
Answer: Result: binds

B6: humanized AP33 antibody RH-G/RK2bc (antibody, V domains shown)
VH: B1 VH with I48M, Y78F
VL: B1 VL
Question: Which results are given for B6?
Answer: binding result [15]: binds; binding result [16]: no binding (tested: about 750 ng/ml); binding result [17]: binds

B7: humanized AP33 antibody RHI/RK2bc (antibody, V domains shown)
VH: B1 VH with Q39K, I48M
VL: B1 VL
notes: RHI is RHb-h with Q39K; Human IgG1/kappa from vectors pG1D200 and pKN100, COS7 expression; also called RHI (Q39K)/RK2bc
Question: Does B7 bind [18]?
Answer: Result: binds

B8: humanized AP33 antibody RHA/RK2bc (antibody, V domains shown)
VH: B1 VH with T30S, Y47W, I67V, R71V, Y78F, L97R
VL: B1 VL
notes: Human IgG1/kappa from vectors pG1D200 and pKN100, COS7 expression; also called AP33RHA/RK2bc
Question: Does B8 bind [5]?
Answer: Result: binds

B9: RHI/Vl (humanized heavy chain RHI with chimeric light chain) (antibody, V domains shown)
VH: B1 VH with Q39K, I48M
VL: B4 VL
notes: as for B4
Question: Does B9 bind [18]?
Answer: Result: binds

B10: chimeric AP33 antibody (Vh/Vl) (antibody, V domains shown)
VH: B2 VH
VL: B4 VL
notes: also called Vh/V1; chimeric antibody
Question: Which results are given for B10?
Answer: binding result [19]: binds; IC50 of HCVpp infection (Huh-7, luciferase) [7]: 0.88 µg/mL; IC90 of HCVpp infection (Huh-7, luciferase) [7]: 6.67 µg/mL; IC50 of HCVpp infection (Huh-7, luciferase) [20]: 1.15 µg/mL; IC90 of HCVpp infection (Huh-7, luciferase) [20]: 11 µg/mL; IC50 of HCVpp infection (Huh-7, luciferase) [8]: 0.48 µg/mL; IC90 of HCVpp infection (Huh-7, luciferase) [8]: 3.2 µg/mL; IC50 of HCVpp infection (Huh-7, luciferase) [21]: 3 µg/mL; IC90 of HCVpp infection (Huh-7, luciferase) [21]: > 15 µg/mL; IC50 of HCVpp infection (Huh-7, luciferase) [9]: < 0.137 µg/mL; IC90 of HCVpp infection (Huh-7, luciferase) [9]: 0.83 µg/mL; IC50 of HCVpp infection (Huh-7, luciferase) [10]: 1.1 µg/mL; IC90 of HCVpp infection (Huh-7, luciferase) [10]: 9.31 µg/mL; IC50 of HCVpp infection (Huh-7, luciferase) [22]: 0.088 µg/mL; IC90 of HCVpp infection (Huh-7, luciferase) [22]: 1.11 µg/mL; IC50 of HCVpp infection (Huh-7, luciferase) [11]: < 0.137 µg/mL; IC90 of HCVpp infection (Huh-7, luciferase) [11]: 3.7 µg/mL; IC50 of HCVpp infection (Huh-7, luciferase) [23]: 1.1 µg/mL; IC90 of HCVpp infection (Huh-7, luciferase) [23]: 11.5 µg/mL; binding result [5]: binds

B11: chimeric AP33 heavy chain mutant Y47F with chimeric light chain Vl (antibody, V domains shown)
VH: B2 VH with Y47F
VL: B4 VL
notes: also called AP33 Y47F
Question: Does B11 bind [19]?
Answer: Result: binds

Question: Does B11 bind [24]?
Answer: Result: binds

Question: And the “EC50 (read off the curve)” value [25]?
Answer: Its value is ~0.02 µg/mL.

B12: chimeric AP33 heavy chain mutant Y47W with chimeric light chain Vl (antibody, V domains shown)
VH: B2 VH with Y47W
VL: B4 VL
notes: also called AP33 Y47W
Question: Does B12 bind [19]?
Answer: Result: binds

Question: Does B12 bind [24]?
Answer: Result: binds

Question: What about the “EC50 (read off the curve)” value [25] of the same binder?
Answer: The value was ~0.03 µg/mL.
